Test results reported in the DeepSol protein solubility set.

Test: soluble on expression in E. coli; label from the status in PepcDB or PDB records

Sequence | soluble on expression in E. coli
MDNLKAELAQAKIDIDQLEKKQWETLEQLVMRDKLIEQCSLHTEILQKDFRESEARIIQLEQQLLEPGECGSELRATIKNQEELLKKQSEEIERCKEESRMLIQQKEEMENIHSEEIFGKNKTISNLRKQIDGDVERKKAKIRTLRKELCSADMNTGKMCRRAKRAEDRIAKLESDLEEERQKHVGQDISHILDQHNSTVMALEMQLANTQQEKATLNTSVEDLKLRTEEWKHNLLGQFEVLTANSKRECESKEEQIANHKREIMEKDSKIECLMELIQNSERSAEIQKMHDALREKDLKISELSEKLQGLLINQEGEADDTMIDQDDDNKSTHSEDSDGWDKINAI | not soluble
GDTSWIKTGKVAWDWWNDWNLKGVPFKAGINMDTYKYYIDFASRNGLEFIVLDEGWYDPKSGDMLTVIPELDLPELIAYGKSKGVEIVLWTVFNVLDSQLEAACKKYADMGIKGFKVDFLDRDDQTAVEMVYRIAEMTARYKLTLDLHGIYKPTGINRTYPHII | not soluble
MGSDKIHHHHHHHILNKKSYKNGYDNISDTDSVYFNGVEKYARFADFPVQINIMQKFDYTLDQLMLRDDYEISLEEWSSILFQIIFALAVAQKEYSFAHNDIHSDNVMFSNTKEPYIYYHINDTIYKVPTFNRVAKLIDFARGTFKVDGKWYISDVFENGGEADGQYEYDLNDFKPNHSFDLARLASSIIDNVNVPEIEDILRTWIKTTSGYDVMEDKDTFDIYIKIAKECFNAVPTKVIKHKLFQQFKITKKQKPNNTYVYYY | not soluble
MAHHHHHHMSMKGSKNMLSPLVGNIYNNVYDHKELKMKSINEQNNMGSNNYNINYVNNNNSTLSNNNHSKQNLCYNNFSSHSPSINKDSIHEEKKNNFYEQHNYIDENATHHTMEEENYKNFKNSKNYEHTIDEDVMQNEYSNIIKDNHLKKKKKKKNIHHLNNKDINNTNLNYETNEQVLIDLPKNHLLNKLTTSIIHSINPHLISEYTHEDITKRTNKISTLKKKKKKKKIEREEIYESDVDNTNGEDNTNDVDNTNDEDNTNDEDNTNDGDNEQIHYHKQFDDQIQKQKNKQNKQKKEYKEFDVYETKGYIPLSNEHKQNKSVCFLDNHVKYYTQQNNVPYEKNIIYENNLNDHQAHSYYNNTLNQFTPNSDILNYNNYINKEYIQGIYNTNNYNIKQDSVYEPNEQVMFMSPQEEKYIYMNASPNNIIRNNDMVFYSGQLDNEQMNININNNNNINNNDNNINSSSSVNDGCFNLHLNNMNNIFNTCTNTQNKQKTHKSFFCNSSAKNVINNENNVKNNKTEILIYKNDKTNNYQNNNQTKQNIQSNNHYNNNNNNNGNHINKFRFFTPTSNNVFVRTRSLTPNTYQKKKKNSFFACSPLKDINLNRQKSLPPQLYTTQDITQPIYTHDISYNLSNKNNIIQNDPYNNIQNITTTLSYPLVNSNFVHLYPYQNSNTNNQIKKIENFNVSKNYMNESSTQTSTETSSKSSKDTSLWNTQIHLLNEKIKNMKTKMENITKEKNEVNELCKMYKVIKNHINVNV | not soluble
MTTRTRILTGITTTGTPHLGNYAGAIRPAIVASRDSNADSFYFLADYHALIKCDDPLRIQRSRQEIAATWLAGGLDVERVTFYRQSDIPEIPELTWLLTCVAAKGLLNRAHAYKASVDKNVEAGEDPDAGITMGLYSYPVLMAADILMFNAHKVPVGRDQIQHVEMARDIGQRFNHLFGQGKEFFTMPEALIEESVATLPGLDGRKMSKSYDNTIPLFTSAKDMKDAISRIVTDSKAPGEAKDPDNSHLFTLYQAFSTPAQAAEFRSELLHGLGWGEAKNRLFQLLDAELGEARERYHQLIARPSDLEDILRAGAVKARAVATPFLNELREAVGLRSFAAQVQVAATTKKKAAKAARFISFREDDGSFRFRLLSADGEQLLLSRNFADGKAAGAVTKQLQSGQELDLRTEGNAFGIWLDGACVADSPDFADASARDAAVDALRIALTPAQDLEHHHHHH | soluble
MRRGLAWVGALLLLGGCVSSRPIDEIQIIQQMGYDFENGRYTGTAVYPTFKQGPMTKPNMLTTTSPTIYDLIPRLSSKSALPIEEGQLRLILFGKEFARRGVTQITHSLARNNKVGSHLLLGVAEESAKELLKITAKTTLSDTLYLPNLVEQNEQSMNLPKTNLHLFLYRYFSPGSDPFLPYFEKKGDFVKLEGVALFRDDQYVGHVSLRDSFLMKILLGETKNGVYQLKVGNRGKQGEDRVMLQNLWAKPKYAWKRDGSRHVLDVFIHIHASVRDYPSWLDQPGGDLFADVKKKMQNELEHNMRRLFRYFQKKRIDPLGIGDFVRSVTRHWDSDAFYREYPDLDIRPHVTVDIVHTGIGE | not soluble
